Experimental data taken from the supplement of paper PMC9112550, “Optimization of the antimicrobial peptide Bac7 by deep mutational scanning” (BMC Biology, 2022).

What follows are sequences tested on Escherichia coli TOP10 (assay: shrunken log2 fold change of peptide-encoding DNA abundance (4.5 h post-induction vs induction); higher = less antimicrobial activity (less host growth inhibition)). Conditions: time post-induction: 4.5 h; library: site-saturation at positions 5, 18, 19, 20.
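Also: peptides expressed intracellularly from a pBAD plasmid library in pooled LB shake-flask culture, induced with 0.3% L-arabinose, DNA abundance read by NGS, three biological replicates, DESeq2 with apeglm shrinkage.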

Row | Sequence | shrunken log2 fold change
1 | RRIRERPPRLPRPRPRPFTTPRP | -0.381
2 | RRIRERPPRLPRPRPRPFVHPRP | -0.435
3 | RRIRERPPRLPRPRPRPFVNPRP | -0.561
4 | RRIRERPPRLPRPRPRPFWVPRP | 0.0389
5 | RRIRERPPRLPRPRPRPGAVPRP | 1.45
6 | RRIRERPPRLPRPRPRPGCAPRP | 0.335
7 | RRIRERPPRLPRPRPRPGCNPRP | -0.0442
8 | RRIRERPPRLPRPRPRPGCTPRP | -0.169
9 | RRIRERPPRLPRPRPRPGFGPRP | 0.0959
10 | RRIRERPPRLPRPRPRPGGWPRP | 0.492
11 | RRIRERPPRLPRPRPRPGHFPRP | 0.0631
12 | RRIRERPPRLPRPRPRPGIMPRP | -0.738
13 | RRIRERPPRLPRPRPRPGINPRP | -0.249
14 | RRIRERPPRLPRPRPRPGKCPRP | -0.205
15 | RRIRERPPRLPRPRPRPGKGPRP | 0.208
16 | RRIRERPPRLPRPRPRPGKKPRP | -0.0022
17 | RRIRERPPRLPRPRPRPGKPPRP | 0.231
18 | RRIRERPPRLPRPRPRPGLAPRP | 0.178
19 | RRIRERPPRLPRPRPRPGLMPRP | -0.0269
20 | RRIRERPPRLPRPRPRPGLPPRP | -0.112
21 | RRIRERPPRLPRPRPRPGMKPRP | 0.0657
22 | RRIRERPPRLPRPRPRPGNWPRP | -0.0108
23 | RRIRERPPRLPRPRPRPGQSPRP | 0.0977
24 | RRIRERPPRLPRPRPRPGSAPRP | 0.151
25 | RRIRERPPRLPRPRPRPGSDPRP | -0.369

Row | Sequence | shrunken log2 fold change
26 | RRIRERPPRLPRPRPRPGSEPRP | -0.0924
27 | RRIRERPPRLPRPRPRPGTKPRP | -0.0636
28 | RRIRERPPRLPRPRPRPGWCPRP | 0.00111
29 | RRIRERPPRLPRPRPRPGYPPRP | -0.216
30 | RRIRERPPRLPRPRPRPHCGPRP | -0.333
31 | RRIRERPPRLPRPRPRPHCYPRP | -0.291
32 | RRIRERPPRLPRPRPRPHDKPRP | -0.784
33 | RRIRERPPRLPRPRPRPHEFPRP | -0.0591
34 | RRIRERPPRLPRPRPRPHEHPRP | -0.205
35 | RRIRERPPRLPRPRPRPHFLPRP | -0.458
36 | RRIRERPPRLPRPRPRPHFRPRP | -0.624
37 | RRIRERPPRLPRPRPRPHFSPRP | 0.061
38 | RRIRERPPRLPRPRPRPHGQPRP | -0.0165
39 | RRIRERPPRLPRPRPRPHHLPRP | -0.143
40 | RRIRERPPRLPRPRPRPHHYPRP | 0.125
41 | RRIRERPPRLPRPRPRPHIAPRP | -0.099
42 | RRIRERPPRLPRPRPRPHIHPRP | -0.135
43 | RRIRERPPRLPRPRPRPHIMPRP | -0.652
44 | RRIRERPPRLPRPRPRPHIYPRP | -0.226
45 | RRIRERPPRLPRPRPRPHMDPRP | -1.21
46 | RRIRERPPRLPRPRPRPHMEPRP | -0.118
47 | RRIRERPPRLPRPRPRPHMQPRP | -0.551
48 | RRIRERPPRLPRPRPRPHNPPRP | -0.417
49 | RRIRERPPRLPRPRPRPHPRPRP | 0.278
50 | RRIRERPPRLPRPRPRPHPVPRP | -0.277

Row | Sequence | shrunken log2 fold change
51 | RRIRERPPRLPRPRPRPHQFPRP | 0.00386
52 | RRIRERPPRLPRPRPRPHQVPRP | -0.0847
53 | RRIRERPPRLPRPRPRPHRKPRP | -0.0945
54 | RRIRERPPRLPRPRPRPHSLPRP | -0.0176
55 | RRIRERPPRLPRPRPRPHVSPRP | -0.0346
56 | RRIRERPPRLPRPRPRPHWFPRP | -0.128
57 | RRIRERPPRLPRPRPRPHWNPRP | -0.843
58 | RRIRERPPRLPRPRPRPHWRPRP | 0.198
59 | RRIRERPPRLPRPRPRPHYAPRP | -0.383
60 | RRIRERPPRLPRPRPRPHYHPRP | -0.356
61 | RRIRERPPRLPRPRPRPHYKPRP | -0.901
62 | RRIRERPPRLPRPRPRPHYPPRP | -0.649
63 | RRIRERPPRLPRPRPRPIAPPRP | 0.235
64 | RRIRERPPRLPRPRPRPIAYPRP | -0.0148
65 | RRIRERPPRLPRPRPRPIEFPRP | 0.101
66 | RRIRERPPRLPRPRPRPIETPRP | -0.00369
67 | RRIRERPPRLPRPRPRPIHMPRP | -0.0835
68 | RRIRERPPRLPRPRPRPIIDPRP | -0.0746
69 | RRIRERPPRLPRPRPRPIIIPRP | -0.0562
70 | RRIRERPPRLPRPRPRPIKDPRP | -0.168
71 | RRIRERPPRLPRPRPRPIKVPRP | -0.0179
72 | RRIRERPPRLPRPRPRPIPDPRP | -0.209
73 | RRIRERPPRLPRPRPRPIPNPRP | -0.135
74 | RRIRERPPRLPRPRPRPIQDPRP | 0.876
75 | RRIRERPPRLPRPRPRPIQQPRP | -0.0452
